Experimental data from paper PMC2196876.

Target: epitope-tagged full-length hVam6p (HA–hVam6p and Myc–hVam6p) (human)
Assay: sucrose gradient sedimentation velocity with immunoprecipitation of fractions

stoichiometry N: 3
Substance: epitope-tagged full-length hVam6p (HA–hVam6p and Myc–hVam6p) (natural protein)
